Data as given in the Human Domainome abundance scans (Beltran et al. 2025).

B1: SH3 and PX domain-containing protein 2B, residues 155 to 209; numbered along this chain, A1X283 (parent)
chain: EQYVVVANYQKQESSEISLSVGQVVDIIEKNESGWWFVSTAEEQGWVPATCLEGQ
B2: Intersectin-1, residues 1156 to 1213; numbered along this chain, Q15811 (parent)
chain: AVCQVIGMYDYTAQNDDELAFNKGQIINVLNKEDPDWWKGEVNGQVGLFPSNYVKLTT

Variants of: B1
Test: abundance fitness (aPCA) (normalised: wild type 0, dead -1); higher = more abundant; growth selection in yeast, the domain comes from the species named
Conditions: Homo sapiens

Abundance fitness of substitutions, site by site:
S39: Y -0.312 | M -0.018
A7: E -0.088
E16: F -0.868 | W -0.55 | G 0.057
V38: F -0.915
A49: L -0.012 | R -0.146
S14: L 0.027
I17: R -0.332 | P -0.769 | G -0.863
K30: I -0.276 | V -0.273
E42: K -0.057 | S 0.07
E29: K 0.022
W46: I -0.299
T40: F 0.02 | P -0.699
V5: C -0.108
K11: P -0.034 | W -0.496
L19: C -0.035 | Y -0.665 | W -0.899 | A -0.482
Q12: S -0.038 | Y -0.313 | P -0.276
N31: C 0.035
Y3: Q -0.17 | R -0.127 | W -0.324 | P -0.585
E13: F -0.229
Q10: D -0.266
Q2: E -0.328
D26: Q -0.052 | F -0.262 | I -0.508
T50: M -0.243
V4: E 0.003
G34: S -0.208 | Q -0.458 | A -0.189 | Y -0.492
E53: S -0.05
S15: M -0.18 | V -0.119
I27: F -0.145 | E -0.944
V24: F -0.239 | K 0.069
G54: D -0.144
G22: A -0.5 | S -0.503 | I -1.05 | M -0.617 | T -0.588
V21: A -0.043 | P -0.315
G45: I -0.643
I28: Q -0.042 | P -0.822 | Y -0.462
Q23: P -0.978
V25: S -0.95
N8: M -0.305 | K -0.083

Variants of: B2
Test: as above
Conditions: Homo sapiens

Abundance fitness: each site, then its substitutions
N15: A -0.131 | Q -0.185 | V -0.639 | R 0.038 | G 0.047 | S 0.085 | K 0.047 | H -0.433 | L -0.612 | I -0.664 | E -0.17 | F -0.539 | D -0.185 | W -0.635 | T 0.024 | P -0.964
T12: N 0.01 | M -0.168 | R -0.072 | W -0.629 | C -0.464 | I -0.608 | L -0.369 | A -0.075 | V -0.165 | K -0.178 | G -0.424 | H -0.108 | Q -0.345 | F -0.39 | Y -0.289 | D -0.203
I6: G -0.64 | S -0.655 | D -0.922 | F -0.619 | M -0.092 | N -0.765 | Q -0.156 | T -0.388 | C -0.386 | W -0.688 | A -0.639 | V 0.159 | R -0.446 | E -0.013 | L -0.47 | K -0.269 | Y -0.548
G7: P -0.519 | A 0.54 | M -0.681 | V -0.551 | F -0.739 | C 0.176 | N -1.15 | D -0.721 | R -0.849 | Y -1.13 | S 0.309 | H -0.466 | W -0.775 | L -0.618 | K -0.772 | Q -0.893
M8: W -0.3 | P -0.914 | N -0.576 | E 0.541 | A 0.209 | L 0.333 | Q 0.31 | R 0.145 | S -0.233 | F -0.286 | T -0.002 | H -0.167 | Y -0.472 | I 0.542 | D -0.67 | G -0.51 | C -0.02
A1: T -0.213 | D -0.322 | S 0.127 | E -0.082 | V -0.068 | R -0.1
Y11: H 0.077 | R -0.374 | S -0.769 | C -0.509 | I -0.563 | Q -0.692 | N -0.937 | V -0.765 | F -0.271 | E -0.809 | G -0.655 | L -0.851 | P -0.759 | T -0.555 | M -0.698 | K -0.879 | D -0.928 | W -0.932
A13: C -0.76 | Y -0.574 | L -0.903 | I -0.735 | T -0.336 | E -0.822 | R -0.451 | F -0.592 | M -0.853 | P -0.059 | V -0.832 | N -0.839 | D -0.944 | S -0.455 | Q -0.676 | W -0.746
V2: E -0.074 | S -0.233 | A -0.492 | P -0.222 | D -0.142 | C -0.357 | Y -0.264 | N -0.223 | M -0.205 | F -0.268 | G -0.115 | K -0.06 | T -0.187 | W -0.384 | R -0.003 | L -0.375 | Q -0.466 | H -0.105
D17: G 0.101 | E -0.03 | H -0.298 | F -0.359 | C -0.344
C3: N -0.252 | K -0.597 | F -0.155 | Q -0.606 | P -0.901 | A -0.463 | R -0.555 | S -0.452 | T -0.123 | G -0.308 | V -0.374 | D -0.033 | W -0.449 | M -0.094 | H -0.706 | Y -0.184 | L -0.387
Y9: R 0.538 | P -0.835 | N 0.418 | V 0.336 | G -0.164 | H 0.278 | K 0.474 | T 0.257 | A 0.362 | Q 0.535 | I 0.431 | E 0.338 | C 0.387 | D 0.196 | L 0.263 | F 0.259
D10: H -0.262 | F -1.01 | V -0.661 | W -0.507 | M 0.001 | N -0.227 | S -0.093 | A -0.217 | C -0.472 | Q -0.625 | G -0.59 | Y -0.838 | P -0.246 | R -0.335 | L -0.724 | I -0.919
D16: H -0.614 | N -0.302 | T -0.232 | Q 0.115 | E 0.059 | I -0.108 | P -0.259 | Y -0.588 | A -0.232 | W -0.726 | R -0.293 | M -0.225 | L -0.3 | S -0.296 | G -0.121 | C -0.166
Q14: R 0.038 | M -0.284 | E -0.122 | G -0.186 | C -0.582 | Y -0.922 | L -0.441 | A -0.267 | D -0.285 | T -0.255 | I -0.58 | W -0.723 | V -0.263 | H -0.505 | P -0.844 | K 0.161
Q4: P -0.817 | W -0.451 | G -0.6 | F -0.719 | Y -0.487 | D -1.15 | S -0.277 | R -0.354 | M -0.527 | I -0.391 | H -0.373 | V -0.488 | L -0.538 | K -0.236 | T -0.207 | C -0.57 | A -0.826 | E -0.629
V5: F -0.772 | W -0.574 | C 0.005 | N -0.902 | P -0.94 | I -0.823 | L -0.891 | M -0.737 | K -0.708 | T -0.526 | G -0.309 | E -0.843 | H -0.644 | R -0.831 | S -0.813 | D -0.711 | Q -0.673 | Y -0.309 | A -0.045
